# Residue numbers refer to the chain shown, from its start.
# T1: murine DLL3 (Mus musculus, UniProt O88516)
# T1 construct: expressed in transfected cells; host or cells: 293 (HEK-293T) cells
# T1 sequence (O88516 33-585 isoform O88516-2 limits assumed): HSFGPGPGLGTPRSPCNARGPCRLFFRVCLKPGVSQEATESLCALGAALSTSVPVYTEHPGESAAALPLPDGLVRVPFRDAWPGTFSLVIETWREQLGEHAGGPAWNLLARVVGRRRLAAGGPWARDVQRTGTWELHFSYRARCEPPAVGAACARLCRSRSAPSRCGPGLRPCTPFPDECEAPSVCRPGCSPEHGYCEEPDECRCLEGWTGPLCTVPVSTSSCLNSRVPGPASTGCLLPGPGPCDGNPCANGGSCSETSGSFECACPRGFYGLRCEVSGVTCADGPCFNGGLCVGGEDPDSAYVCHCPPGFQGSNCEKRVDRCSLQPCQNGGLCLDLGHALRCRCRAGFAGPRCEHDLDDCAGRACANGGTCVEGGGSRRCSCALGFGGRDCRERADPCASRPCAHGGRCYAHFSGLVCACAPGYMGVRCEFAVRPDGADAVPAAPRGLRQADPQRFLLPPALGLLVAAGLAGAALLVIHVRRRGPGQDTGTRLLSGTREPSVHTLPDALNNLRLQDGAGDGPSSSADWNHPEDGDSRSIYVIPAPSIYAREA
# T2: human DLL3 antigen (Homo sapiens, UniProt Q9NYJ7)
# T2 sequence (Q9NYJ7 27-618): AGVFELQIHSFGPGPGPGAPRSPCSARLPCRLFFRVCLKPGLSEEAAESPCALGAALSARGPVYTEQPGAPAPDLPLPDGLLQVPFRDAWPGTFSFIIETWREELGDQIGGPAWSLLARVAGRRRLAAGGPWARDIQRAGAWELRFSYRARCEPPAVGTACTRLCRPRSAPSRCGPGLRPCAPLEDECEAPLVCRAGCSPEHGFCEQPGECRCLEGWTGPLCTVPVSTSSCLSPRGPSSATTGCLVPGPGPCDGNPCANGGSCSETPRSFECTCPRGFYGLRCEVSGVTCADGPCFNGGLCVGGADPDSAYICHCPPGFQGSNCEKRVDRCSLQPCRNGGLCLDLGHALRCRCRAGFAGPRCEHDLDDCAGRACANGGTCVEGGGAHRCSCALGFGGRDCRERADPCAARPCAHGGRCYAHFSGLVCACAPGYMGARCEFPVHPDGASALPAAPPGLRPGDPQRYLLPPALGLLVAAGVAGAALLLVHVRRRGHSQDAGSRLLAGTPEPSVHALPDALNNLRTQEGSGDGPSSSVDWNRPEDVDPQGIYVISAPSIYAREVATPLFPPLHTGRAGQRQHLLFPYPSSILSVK
# B1: SC16.4: murine anti-DLL3 monoclonal antibody; VL/VH SEQ ID NOS: 25 and 27 (antibody, listed as Mus musculus, V domains shown)
# VH: QIQLVQSGPELKKPGETVKISCKASGYTFTDYSMHWVKQAPGKGLKWMGWINTETGEPGYADDFKGRFAFSLETSASTAYLQINNLKNEDTATYFCARYDGYAMDYWGQGTSVTVSS
# VL: DIQMTQTTSSLSASLGDRVTISCRASQDISNYLNWYQQKPDGTVKLLIYYTSRLHSGVPSRFSGSGSGTDYSLTISNLELEDIATYFCQQGDMLPWTFGGGTKLEIK
# B2: SC16.13: murine anti-DLL3 monoclonal antibody, sequences in FIGS. 3A and 3B (antibody, V domains shown)
# VL: QIVLTQSPALVSASPGEKVTMTCSASSSVSYMYWYQQKPRSSPKPWIYLTSNLASGVPARFSGSGSGTSYSLTISSMEAEDAATYYCQQWRSNPFTFGSGTKLEIK
# VH: QVTLKESGPGILQPSQTLSLTCSFSGFSLSTSGMGVGWIRQPSGKGLEWLAHIWWDDVKRYNPALKSRLTISKDTSSSQVFLKIASVDTADTATYYCARIVSFDNDVVSAMDYWGQGTSVTVSS
# B3: SC16.65: murine anti-DLL3 monoclonal antibody, sequences in FIGS. 3A and 3B (antibody, V domains shown)
# VL: B2 VL with V11M, A25V, S26T, M77V, S92N, L103V
# VH: B2 VH with H52L, T75A, V101A, F103Y, N105Y, S109Y, T121S
# B4: SC16.8: murine anti-DLL3 monoclonal antibody, sequences in FIGS. 3A and 3B (antibody, V domains shown)
# VL: EIQMTQSPSSMSASLGDRITITCQATQDIVKNLNWYQQKPGKPPSFLIYYAIELAEGVPSRFSGSGSGSDYSLTISNLESEDFADYYCLQFYEFPFTFGAGTKLELK
# VH: QAQLQQSGAELVRPGTSVKVSCKASGYAFTNYLIEWVKQRPGQGLEWIGVINPGTGGTNYNENFKGKATLTADKSSSTAYMQLSSLTSDDSAVYFCARSPYDYHEGAMDYWGQGTSVTVSS
# B5: SC16.15: murine anti-DLL3 monoclonal antibody, sequences in FIGS. 3A and 3B (antibody, V domains shown)
# VL: DIQMTQSPASLAASVGETVAITCRASENIYYNLAWYQQKQGKSPQLLIYTANSLEDGVPSRFSGSGSGTQYSLKINSMQPEDSATYFCKQAYDVPPTFGGGTKLEIK
# VH: QVQLQQSGAELAKPGASVKMSCKASGYTFTRYWIHWIKQRPGQGLEWIGYINPTTVYTEFNQNFKDKATLTADKSSTTASMQLSSLTSEDSAVYYCARGGSNFFDYWGQGTTLTVSS
# B6: SC16.34: murine anti-DLL3 monoclonal antibody, sequences in FIGS. 3A and 3B (antibody, V domains shown)
# VL: SIVMTQTPKFLLVSAGDRVTITCKASQSVSNDVAWYQQKPGQSPKLLIYYASNRYSGVPDRFTGSGYGTDFTFTISTVQAEDLAVYFCQQDYSSPWTFGGGTKLEIK
# VH: QIQLVQSGPELKRPGETVKISCKASGYTFTNYGMNWVKQAPGKGLKWMGWINTYTGDPTYADDFKGRFAFSLETSASTAYLQINNLKNEDTATYFCARIGGNSPSDYWGQGTSLTVSS
# B7: SC16.56: murine anti-DLL3 monoclonal antibody, sequences in FIGS. 3A and 3B (antibody, V domains shown)
# VL: B6 VL with A34V, S56T, T63A, T72S, S93T, K107R
# VH: B6 VH with R13K, G49A, D57E, Y80S, N84I, G101D, N102S, S113T
# B8: SC16.25: murine anti-DLL3 monoclonal antibody, sequences in FIGS. 3A and 3B (antibody, V domains shown)
# VL: QIVLTQSPAIMSASPGEKVTMTCSASSSVSYMHWYQQKSGTSPKRWIYDSSKLASGVPARFSGSGSGTSYSLTISSMEAEDAATYYCQQWSSNPLTFGAGTKLELK
# VH: QVTLKESGPGILQPSQTLSLTCSFSGFSLSTSGMGVGWIRQPSGEGLEWLTDIWWDDNKYYNPSLKSRLTISKDTSSNQVFLNITSVDTADTATYYCARRVNYYYDPYYAMDYWGQGTSVTVSS
# B9: SC16.10: murine anti-DLL3 monoclonal antibody, sequences in FIGS. 3A and 3B (antibody, V domains shown)
# VL: QIVLTQSPAIMSASLGERVTMTCTASSSVSSSYLHWYQQKPGSSPKLWIYSTSNLASGVPTRFSGSGSGTSYSLTISSMEAEDAATYYCHQYHRSPFTFGSGTKLEIK
# VH: QVTLKESGPGILQSSQTLSLTCSFSGFSLSTSGMGVGWIRQPSGKGLEWLAHIWWDDVKRYNPVLKSRLTISKDTSSSQVFLKIASVDTADTATYYCARLVDDLYYFDYWGQGTTLTVSS
# Molecular target: T1, murine DLL3
# Assay: Flow cytometry on 293 cells over-expressing murine DLL3
# Format: binding
# Details: not given
# Description: In addition to evaluating the exemplary modulators as set forth above, flow cytometry was performed in order to confirm that selected SC16 antibody modulators can immunospecifically associate with human DLL3 and to determine whether the same antibodies cross-react with cynomolgus, rat and/or murine DLL3. More particularly the exemplary murine antibodies were analyzed by flow cytometry using a FACSCanto II and 293 cells over-expressing murine, rat, cynomolgus or human DLL3. In some cases, exemplary murine modulators were analyzed by flow cytometry using a FACSCanto II and yeast cells displaying cynomolgus DLL3 using the methods described by Cochran et al. (J Immunol Methods. 287 (1-2):147-158 (2004).
# Such results are not unexpected given that murine DLL3 is approximately 83% homologous with isoform 2 of human DLL3. It will be appreciated that this cross-reactivity may be advantageously exploited in the context of the instant invention through the use of animal models in drug discovery and development.
row,Molecule,cross-reactivity with murine DLL3
1,B1,cross-react with murine DLL3 to a greater or lesser extent
2,B2,did not appreciably associate with murine DLL3
3,B3,did not appreciably associate with murine DLL3
4,B4,cross-react with murine DLL3 to a greater or lesser extent
5,B5,cross-react with murine DLL3 to a greater or lesser extent
6,B6,cross-react with murine DLL3 to a greater or lesser extent
7,B7,cross-react with murine DLL3 to a greater or lesser extent
8,B8,did not appreciably associate with murine DLL3
9,B9,did not appreciably associate with murine DLL3

# Molecular target: T2, human DLL3 antigen
# Assay: Surface plasmon resonance (Biacore 2000), humanized versus chimeric constructs
# Details: concentration series of 25 and 12.5 nM human DLL3 antigen, 1:1 Langmuir binding model, estimated, read-out: KD of antibody binding to human DLL3 antigen
# Description: Besides the aforementioned assays, humanized constructs hSC16.13, hSC16.15, hSC16.25, hSC16.34 and hSC16.56 from Example 4 were analyzed to determine if the CDR grafting process had appreciably altered their binding characteristics. In this respect the humanized constructs (CDR grafted) were compared with “traditional” chimeric antibodies comprising the murine parent (or donor) heavy and light chain variable domains and a human constant region substantially equivalent to that used in the humanized constructs. With these constructs surface plasmon resonance (SPR) was conducted using a Biacore 2000 (GE Healthcare) to identify any subtle changes in rate constants brought about by the humanization process.
# Based on a concentration series of 25 and 12.5 nM of human DLL3 antigen and using a 1:1 Langmuir binding model, the KD of the SC16.15 antibody binding to human DLL3 antigen was estimated to be 0.2 nM.
row,Kd,Molecule
1,~0.2 nM,B5

# Reference: US9968687B2, “Anti-DLL3 antibody drug conjugates” (AbbVie Stemcentrx LLC, priority 2013, dated 2018)
